From the supplement of paper PMC7877785
± gives the uncertainty stated by the source.

Test: self-splicing fitness, log relative to wild type (ln ratio); higher = more splicing; Tetrahymena group I intron in knt gene, E. coli kanamycin selection, DiMSum; sequences stand for … in CUCUCU…GGAGGGAAAAGUUAUCAGGCAUGCACCUGGUAGCUAGUCUUUAAACCAAUAGAUUGCAUCGGUUUAAAAGGCAAGACCGUCAAAUUGCGGGAAAGGGGUCAACAGCCGUUCAGUACCAAGUCUCAGGGGAAACUUUGAGAUGGCCUUGCAAAGGGUAUGGUAAUAAGCUGACGGACAUGGUCCUAACCACGCAGCCAAGUCCUAAGUCAACAGAUCUUCUGUUGAUAUGGAUGCAGUUCACAGACUAAAUGUCGGUCGGGGAAGAUGUAUUCUUCUCAUAAGAUAUAGUCGGACCUCUCCUUAAUGGGAGCUAGCGGAUGAAGUGAUGCAACACUGGAGCCGCUGGGAACUAAUUUGUAUGCGAAAGUAUAUUGAUUAGUUUUGGAGUACUCGUGGUCG
In short: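 Six replicate transformations of E. coli BL21(DE3) with a pET-22b(+) library were grown overnight at 37°C or 30°C. The library randomised all eight P1ex-region intron nucleotides, the intron lying in the knt kanamycin-resistance gene, and plates were LB agar with or without 25 μg/mL kanamycin plus 100 μg/mL carbenicillin, 50 μM IPTG and 0.2% rhamnose. Pooled colonies were amplicon-sequenced on an Illumina HiSeq 2500, and fitness is the DiMSum error-weighted combination of wild-type-normalised replicate fold changes, kanamycin versus none.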

Sequence | self-splicing fitness (ln) (37 °C) | self-splicing fitness (ln) (30 °C)
CCAGAGCAAUAUUACGUACC | -2 ± 0.35 | 
CCAGAGCAAUAUUACGUAUC | -1.73 ± 0.25 | -2.62 ± 0.17
CCAGAGCAAUAUUACGUAUU | -2.41 ± 0.17 | -3.91 ± 0.18
CCAGAGCAAUAUUACGUCAU | -2.81 ± 0.18 | -3.64 ± 0.28
CCAGAGCAAUAUUACGUGCU | -3.56 ± 0.42 | -3.37 ± 0.24
CCAGAGCAAUAUUACGUGGU | -2.96 ± 0.21 | -2.75 ± 0.12
CCAGAGCAAUAUUACGUUCA | -2.32 ± 0.34 | -2.45 ± 0.32
CCAUAGCAAUAUUACGAAAC | -2 ± 0.29 | -4.09 ± 0.35
CCAUAGCAAUAUUACGACCG | -0.0737 ± 0.22 | -0.0743 ± 0.15
CCAUAGCAAUAUUACGACUA | -1.71 ± 0.37 | 
CCAUAGCAAUAUUACGAGGU | -2.67 ± 0.23 | -3.37 ± 0.26
CCAUAGCAAUAUUACGAUAG | -0.387 ± 0.076 | -0.989 ± 0.06
CCAUAGCAAUAUUACGCCGU | -1.91 ± 0.35 | -4.03 ± 0.34
CCAUAGCAAUAUUACGCGCU | -3.05 ± 0.4 | -3.87 ± 0.27
CCAUAGCAAUAUUACGCUGC | -2.25 ± 0.27 | -3.84 ± 0.3
CCAUAGCAAUAUUACGGAGC | -2.74 ± 0.31 | 
CCAUAGCAAUAUUACGGCGC | -2.07 ± 0.3 | -1.25 ± 0.19
CCAUAGCAAUAUUACGGCGU | -1.97 ± 0.23 | -3.98 ± 0.3
CCAUAGCAAUAUUACGGGAA | -2.84 ± 0.18 | -3.49 ± 0.19
CCAUAGCAAUAUUACGGGCU | -2.19 ± 0.19 | -3.65 ± 0.27
CCAUAGCAAUAUUACGGUAA | -3.26 ± 0.35 | -3.53 ± 0.33
CCAUAGCAAUAUUACGGUGG | -3.4 ± 0.18 | -3.66 ± 0.13
CCAUAGCAAUAUUACGGUUC | -2.03 ± 0.35 | -4.2 ± 0.46
CCAUAGCAAUAUUACGUACG | 0.351 ± 0.086 | -0.658 ± 0.07
CCAUAGCAAUAUUACGUAGU | -2.14 ± 0.23 | -3.93 ± 0.24

Sequence | self-splicing fitness (ln) (37 °C) | self-splicing fitness (ln) (30 °C)
CCAUAGCAAUAUUACGUAUC | -2.01 ± 0.31 | -2.32 ± 0.15
CCAUAGCAAUAUUACGUCAG | -1.61 ± 0.15 | -1.74 ± 0.13
CCAUAGCAAUAUUACGUCGG | -2.02 ± 0.29 | -3.15 ± 0.19
CCAUAGCAAUAUUACGUGGG | -2.96 ± 0.15 | -4.18 ± 0.16
CCAUAGCAAUAUUACGUUCC | -2.52 ± 0.44 | -3.61 ± 0.39
CCCAAGCAAUAUUACGAAGU | -2.19 ± 0.18 | -2.98 ± 0.15
CCCAAGCAAUAUUACGACAC | -3.25 ± 0.43 | -2.66 ± 0.2
CCCAAGCAAUAUUACGACGA | -1.49 ± 0.14 | -2.93 ± 0.17
CCCAAGCAAUAUUACGACGC | -0.545 ± 0.23 | -2.8 ± 0.22
CCCAAGCAAUAUUACGACGG | -1.61 ± 0.16 | -3.7 ± 0.21
CCCAAGCAAUAUUACGAGAC | -1.4 ± 0.17 | -3.64 ± 0.21
CCCAAGCAAUAUUACGAUGA | -2.69 ± 0.24 | -1.7 ± 0.19
CCCAAGCAAUAUUACGCAAA | -2.71 ± 0.14 | -3.35 ± 0.13
CCCAAGCAAUAUUACGCCCC | -2.52 ± 0.48 | 
CCCAAGCAAUAUUACGCUCA | -3.23 ± 0.25 | -3.73 ± 0.27
CCCAAGCAAUAUUACGCUUU | -1.85 ± 0.17 | -3.91 ± 0.2
CCCAAGCAAUAUUACGGAAG | -1.48 ± 0.15 | -2.89 ± 0.16
CCCAAGCAAUAUUACGGACU | -2.6 ± 0.18 | -3.92 ± 0.26
CCCAAGCAAUAUUACGGCCU | -3.09 ± 0.37 | -3.6 ± 0.35
CCCAAGCAAUAUUACGGCGC | -2.73 ± 0.25 | 
CCCAAGCAAUAUUACGGCGU | -2.4 ± 0.13 | -3.85 ± 0.19
CCCAAGCAAUAUUACGGCUA | -3.19 ± 0.32 | -4.01 ± 0.42
CCCAAGCAAUAUUACGGCUU | -3.15 ± 0.17 | -4.22 ± 0.22
CCCAAGCAAUAUUACGGGCC | -2.08 ± 0.19 | -3.98 ± 0.22
